Patent US20250235479A1 (INNOBATION BIO, published 2025)

T1: CD22 protein (ACRObiosystems Inc., cat #CD2-H52H8, USA) (UniProt P20273 20-687)
T1 construct: Named as the immunogen
T1 sequence (looked up): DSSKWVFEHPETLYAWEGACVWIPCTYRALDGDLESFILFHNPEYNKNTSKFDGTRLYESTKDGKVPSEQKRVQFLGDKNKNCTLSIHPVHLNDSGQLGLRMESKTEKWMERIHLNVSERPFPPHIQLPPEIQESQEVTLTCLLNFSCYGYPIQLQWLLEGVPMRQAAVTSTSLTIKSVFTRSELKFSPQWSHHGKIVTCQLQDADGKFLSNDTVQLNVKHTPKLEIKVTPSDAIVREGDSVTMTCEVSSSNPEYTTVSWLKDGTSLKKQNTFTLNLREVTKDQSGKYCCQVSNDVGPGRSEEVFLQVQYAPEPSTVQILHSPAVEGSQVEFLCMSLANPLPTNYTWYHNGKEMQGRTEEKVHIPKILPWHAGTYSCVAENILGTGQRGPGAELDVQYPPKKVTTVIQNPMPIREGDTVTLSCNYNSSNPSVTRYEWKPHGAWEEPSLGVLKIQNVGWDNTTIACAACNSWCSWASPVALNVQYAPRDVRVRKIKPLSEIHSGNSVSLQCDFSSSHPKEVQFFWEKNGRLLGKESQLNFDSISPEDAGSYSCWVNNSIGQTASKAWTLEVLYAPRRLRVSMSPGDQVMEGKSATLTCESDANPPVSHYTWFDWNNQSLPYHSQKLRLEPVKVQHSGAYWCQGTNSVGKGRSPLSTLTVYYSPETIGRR

T2: CD22 expressed on cells (U2932, NALM6, K562/CD22+ cells) (UniProt P20273 20-847, limits assumed)
T2 construct: whole, on cells; the cell lines are human lines; also called cells expressing CD22
T2 sequence (looked up): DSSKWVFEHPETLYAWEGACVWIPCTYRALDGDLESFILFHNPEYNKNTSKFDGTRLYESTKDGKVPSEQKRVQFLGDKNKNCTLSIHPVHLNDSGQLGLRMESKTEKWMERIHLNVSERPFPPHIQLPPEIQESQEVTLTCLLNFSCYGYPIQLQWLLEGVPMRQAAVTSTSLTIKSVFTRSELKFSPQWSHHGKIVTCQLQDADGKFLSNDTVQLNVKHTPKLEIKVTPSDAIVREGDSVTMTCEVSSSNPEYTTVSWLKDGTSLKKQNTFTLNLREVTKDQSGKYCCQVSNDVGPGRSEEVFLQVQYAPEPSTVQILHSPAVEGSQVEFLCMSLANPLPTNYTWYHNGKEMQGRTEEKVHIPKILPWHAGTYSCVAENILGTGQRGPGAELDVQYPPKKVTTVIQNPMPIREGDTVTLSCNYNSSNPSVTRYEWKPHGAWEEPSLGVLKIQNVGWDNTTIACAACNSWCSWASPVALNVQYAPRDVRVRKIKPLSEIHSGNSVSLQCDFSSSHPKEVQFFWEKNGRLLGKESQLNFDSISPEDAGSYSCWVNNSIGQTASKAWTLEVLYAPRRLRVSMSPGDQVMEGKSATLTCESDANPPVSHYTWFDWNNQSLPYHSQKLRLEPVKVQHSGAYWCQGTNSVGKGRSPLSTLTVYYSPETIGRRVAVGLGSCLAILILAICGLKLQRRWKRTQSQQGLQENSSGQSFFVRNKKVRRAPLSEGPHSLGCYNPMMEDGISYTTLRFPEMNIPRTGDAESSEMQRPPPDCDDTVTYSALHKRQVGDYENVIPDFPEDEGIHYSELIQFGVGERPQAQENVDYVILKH

B1: 2G1 antibody (mouse anti-CD22 antibody) (antibody, V domains shown)
VH: EVQLQESGPGLVAPSQSLSITCTVSGFSLTSYDISWIRQPPGKGLEWLGVIWTGGGTNYNSAFMSRLSISKDNSKSQVFLKMNSLQTDDTAIYYCVPHYYGYAMDYWGQGTSVTVSS
VL: DIVLTQSPSSLSASLGGKVTITCKASQDINKYIAWYQHKPGKGPRLLIHYTSTLQPGIPSRFSGSGSGRDYSFSISNLEPEDIATYYCLQYDNLLTFGAGTKLELK
notes: Obtained from a mouse hybridoma; also called mouse 2G1 antibody
B2: humanized anti-CD22 antibody 2G1(V4) (antibody, V domains shown)
VH: EVQLQESGPGLVKPSQTLSLTCTVSGFSLTSYDISWIRQPPGKGLEWLGVIWTGGGTNYNSALKSRVTISKDNSKSQVSLKLSSVTAADTAVYYCVPHYYGYAMDYWGQGTTVTVSS
VL: EIVLTQSPATLSLSPGERATLSCRASQDINKYIAWYQQKPGQAPRLLIHYTSTRQTGIPARFSGSGSGRDYTLTISSLEPEDFAVYYCLQYDNLLTFGGGTKLEIK
notes: CDR-grafted humanized form of 2G1
B3: humanized anti-CD22 antibody 2G1(V12) (antibody, V domains shown)
VH: EVQLKESGPVLVKPTETLTLTCTVSGFSLTSYDISWIRQPPGKALEWLGVIWTGGGTNYNSALKSRLTISKDNSKSQVVLTMTNMDPVDTATYYCVPHYYGYAMDYWGQGTTVTVSS
VL: B2 VL
notes: as for B2

Legend:
[1] = target: T1, CD22 protein (ACRObiosystems Inc., cat …); experiment: ELISA screening of hybridoma clones
Description: A limiting dilution method was used to select a hybridoma that produces an antibody binding to CD22 from among the proliferated hybridomas. First, the number of cells was reduced to 1 cell or less per […], and then it was confirmed by ELISA whether an antibody obtained from a clone proliferated from one cell bound to CD22, and a clone binding to CD22 was selected. The above process was repeated three times to select hybridomas that produced the antibody binding to CD22. The antibody binding to CD22 was obtained in this manner.

[2] = target: T2, CD22 expressed on cells (U2932, NALM6, …); experiment: flow cytometry on U2932 cells expressing CD22

Binder	binding result [1]	binding result [2]
B1	binds	binds
B2		binds
B3		binds
